Test results from publication PMC6829319, “Combination of SAXS and Protein Painting Discloses the Three-Dimensional Organization of the Bacterial Cysteine Synthase Complex, a Potential Target for Enhancers of Antibiotic Action” (International Journal of Molecular Sciences, 2019).

B1: O-acetylserine sulfhydrylase isozyme A (CysK) from E. coli (enzyme)
chain: KIFEDNSLTIGHTPLVRLNRIGNGRILAKVESRNPSFSVKCRIGANMIWDAEKRGVLKPGVELVEPTSGNTGIALAYVAAARGYKLTLTMPETMSIERRKLLKALGANLVLTEGAKGMKGAIQKAEEIVASNPEKYLLLQQFSNPANPEIHEKTTGPEIWEDTDGQVDVFIAGVGTGGTLTGVSRYIKGTKGKTDLISVAVEPTDSPVIAQALAGEEIKPGPHKIQGIGAGFIPANLDLKLVDKVIGITNEEAISTARRLMEEEGILAGISSGAAVAAALKLQEDESFTNKNIVVILPSSGERYLSTALFADLFTEKELQQ
notes: Carries the pyridoxal 5'-phosphate (PLP) cofactor; Dimer; source: E. coli BL21(DE3) or BL21(DE3) Tuner, pET21P vector, purified as previously described [50]

Key:
[1] = biological target: the molecule itself; assay: SAXS; solution scattering at 10 °C; 20 mM sodium phosphate, 85 mM NaCl, 2 mM EDTA, 10 mM 2-MCE, pH 7.5; 0.5-1.5 mg/mL; CysK, CysE and CS (gel filtered and dialysed before) each measured; ab initio DAMMIF and SASREF rigid body models
[2] = biological target: B1; assay: other fluorescence titration; PLP fluorescence emission of CysK at 500 nm after excitation at 412 nm with increasing concentrations of CysE; 20 °C; stoichiometric titration, ratio of CysE to CysK; conditions: both partners purified

Row | Binder | stoichiometry N [1] | stoichiometry N [2]
1 | B1 | 2 | –
2 | serine acetyltransferase (CysE) from E. coli (enzyme, serine acetyltransferase (CysE), E. coli; Hexamer (dimer of trimers); source: E. coli BL21(DE3) or BL21(DE3) Tuner, pSH21p vector, purified, tag removed as previously described [50]) MSCEELEIVWNNIKAEARTLADCEPMLASFYHATLLKHENLGSALSYMLANKLSSPIMPAIAIREVVEEAYAADPEMIASAACDIQAVRTRDPAVDKYSTPLLYLKGFHALQAYRIGHWLWNQGRRALAIFLQNQVSVTFQVDIHPAAKIGRGIMLDHATGIVVGETAVIENDVSILQSVTLGGTGKSGGDRHPKIREGVMIGAGAKILGNIEVGRGAKIGAGSVVLQPVPPHTTAAGVPARIVGKPDSDKPSMDMDQHFNGINHTFEYGDGI | 6 | 1.7
